Measured values taken from article PMC3690454, “14-3-3 Proteins Interact with a Hybrid Prenyl-Phosphorylation Motif to Inhibit G Proteins” (Cell, 2013).
Square brackets hold non-standard residues; d marks the D form. Ends that are not written are not given here. * marks the point of attachment. Geranylgeranyl = CC(C)=CCC/C(C)=C/CC/C(C)=C/CC/C(C)=C/C*; Biotin = O=C1N[C@H]2[C@H](CS[C@H]2CCCCC(=O)*)N1; pS = N[C@@H](COP(=O)(O)O)C(=O)O; Ahx = NCCCCCC(=O)O

Biological target: T1, hexa-His-tagged 14-3-3ζ (UniProt P63104 1-245)
T1 construct: 14-3-3ζ, expressed essentially as in Kostelecky et al., 2009; eluted as a dimer of ~60 kDa; also called recombinant 14-3-3ζ; 14-3-3ζ domain; source: E. coli BL21(DE3) Star, purified (HisTrap, size-exclusion chromatography)
T1 sequence: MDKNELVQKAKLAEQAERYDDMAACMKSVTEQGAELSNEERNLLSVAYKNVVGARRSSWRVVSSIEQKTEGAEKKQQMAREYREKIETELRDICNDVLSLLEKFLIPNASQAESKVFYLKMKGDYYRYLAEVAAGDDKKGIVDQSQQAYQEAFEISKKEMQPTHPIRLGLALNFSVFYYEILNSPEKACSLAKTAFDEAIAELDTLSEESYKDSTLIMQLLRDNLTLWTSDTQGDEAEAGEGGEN
Experiment: BLI; Octet RED96; biotinylated peptides immobilised on streptavidin biosensors; dilution series of 14-3-3ζ; 25 mM Tris, 150 mM NaCl, 0.1% Tween-20; KD of +P-F by steady-state analysis
Conditions: both partners purified

B1: biotinylated Rap1A C-terminal peptide, phosphorylated and geranylgeranylated (peptide)
peptide: {Biotin-Ahx}-EKKKPKKK[pS]C(Geranylgeranyl)
notes: C terminus of Rap1A up to the prenylated C181; also called Rap1A peptide; source: synthetic peptide
Kd: ~25 nM
